Results as given in patent US20210388087A1 (Chugai, published 2021).
Positions count from the first letter of the chain named. Numbers in names are those of the source.

B1: H183/L072 VH S62L (antibody, name in Kabat numbering, V domains shown)
VH: QVQLVESGGGLVQPGRSLRLSCAASGFTFSNAWMHWVRQAPGKGLEWVAQIKDKGNAYAAYYAPLVKGRFTISRDDSKNSIYLQMNSLKTEDTAVYYCHYVHYASASTVLPAFGVDAWGQGTTVTVSS
VL: DIVMTQSPLSLPVTPGEPASISCQASQELVHMNRNTYLHWYQQKPGQAPRLLIYKVSNRFPGVPDRFSGSGSGTDFTLKISRVEAEDVGVYYCAQGTSVPFTFGQGTKLEIK
B2: H183/L072 VH S62M (antibody, name in Kabat numbering, V domains shown)
VH: B1 VH with L65M
VL: B1 VL
B3: H183/L072 VH S62P (antibody, name in Kabat numbering, V domains shown)
VH: B1 VH with L65P
VL: B1 VL
B4: H183/L072 VH S99A (antibody, name in Kabat numbering, V domains shown)
VH: B1 VH with L65S, S105A
VL: B1 VL
B5: H183/L072 VH S99I (antibody, name in Kabat numbering, V domains shown)
VH: B1 VH with L65S, S105I
VL: B1 VL
B6: H183/L072 VH S99L (antibody, name in Kabat numbering, V domains shown)
VH: B1 VH with L65S, S105L
VL: B1 VL
B7: H183/L072 VH S99M (antibody, name in Kabat numbering, V domains shown)
VH: B1 VH with L65S, S105M
VL: B1 VL
B8: H183/L072 VH S100aA (antibody, name in Kabat numbering, V domains shown)
VH: B1 VH with L65S, S107A
VL: B1 VL
B9: H183/L072 VH S100aI (antibody, name in Kabat numbering, V domains shown)
VH: B1 VH with L65S, S107I
VL: B1 VL
B10: H183/L072 VH S100aL (antibody, name in Kabat numbering, V domains shown)
VH: B1 VH with L65S, S107L
VL: B1 VL
B11: H183/L072 VH S100aM (antibody, name in Kabat numbering, V domains shown)
VH: B1 VH with L65S, S107M
VL: B1 VL
B12: H183/L072 VH T28A (antibody, name in Kabat numbering, V domains shown)
VH: B1 VH with T28A, L65S
VL: B1 VL
B13: H183/L072 VH T28E (antibody, name in Kabat numbering, V domains shown)
VH: B1 VH with T28E, L65S
VL: B1 VL
B14: H183/L072 VH T28G (antibody, name in Kabat numbering, V domains shown)
VH: B1 VH with T28G, L65S
VL: B1 VL
B15: H183/L072 VH T28H (antibody, name in Kabat numbering, V domains shown)
VH: B1 VH with T28H, L65S
VL: B1 VL
B16: H183/L072 VH T28I (antibody, name in Kabat numbering, V domains shown)
VH: B1 VH with T28I, L65S
VL: B1 VL
B17: H183/L072 VH T28K (antibody, name in Kabat numbering, V domains shown)
VH: B1 VH with T28K, L65S
VL: B1 VL
B18: H183/L072 VH T28M (antibody, name in Kabat numbering, V domains shown)
VH: B1 VH with T28M, L65S
VL: B1 VL
B19: H183/L072 VH T28P (antibody, name in Kabat numbering, V domains shown)
VH: B1 VH with T28P, L65S
VL: B1 VL
B20: H183/L072 VH T28Q (antibody, name in Kabat numbering, V domains shown)
VH: B1 VH with T28Q, L65S
VL: B1 VL
B21: H183/L072 VH T28R (antibody, name in Kabat numbering, V domains shown)
VH: B1 VH with T28R, L65S
VL: B1 VL
B22: H183/L072 VH T28V (antibody, name in Kabat numbering, V domains shown)
VH: B1 VH with T28V, L65S
VL: B1 VL
B23: H183/L072 VH T28W (antibody, name in Kabat numbering, V domains shown)
VH: B1 VH with T28W, L65S
VL: B1 VL
B24: H183/L072 VH T28Y (antibody, name in Kabat numbering, V domains shown)
VH: B1 VH with T28Y, L65S
VL: B1 VL
B25: H183/L072 VH T100bA (antibody, name in Kabat numbering, V domains shown)
VH: B1 VH with L65S, T108A
VL: B1 VL
B26: H183/L072 VH T100bI (antibody, name in Kabat numbering, V domains shown)
VH: B1 VH with L65S, T108I
VL: B1 VL
B27: H183/L072 VH T100bL (antibody, name in Kabat numbering, V domains shown)
VH: B1 VH with L65S, T108L
VL: B1 VL
B28: H183/L072 VH T100bM (antibody, name in Kabat numbering, V domains shown)
VH: B1 VH with L65S, T108M
VL: B1 VL
B29: H183/L072 VH V63A (antibody, name in Kabat numbering, V domains shown)
VH: B1 VH with L65S, V66A
VL: B1 VL
B30: H183/L072 VH V63I (antibody, name in Kabat numbering, V domains shown)
VH: B1 VH with L65S, V66I
VL: B1 VL
B31: H183/L072 VH V63L (antibody, name in Kabat numbering, V domains shown)
VH: B1 VH with L65S, V66L
VL: B1 VL
B32: H183/L072 VH V63M (antibody, name in Kabat numbering, V domains shown)
VH: B1 VH with L65S, V66M
VL: B1 VL
B33: H183/L072 VH V63P (antibody, name in Kabat numbering, V domains shown)
VH: B1 VH with L65S, V66P
VL: B1 VL
B34: H183/L072 VH V95A (antibody, name in Kabat numbering, V domains shown)
VH: B1 VH with L65S, V101A
VL: B1 VL
B35: H183/L072 VH V95I (antibody, name in Kabat numbering, V domains shown)
VH: B1 VH with L65S, V101I
VL: B1 VL
B36: H183/L072 VH V95L (antibody, name in Kabat numbering, V domains shown)
VH: B1 VH with L65S, V101L
VL: B1 VL
B37: H183/L072 VH V95M (antibody, name in Kabat numbering, V domains shown)
VH: B1 VH with L65S, V101M
VL: B1 VL
B38: H183/L072 VH V95P (antibody, name in Kabat numbering, V domains shown)
VH: B1 VH with L65S, V101P
VL: B1 VL
B39: H183/L072 VH V100cA (antibody, name in Kabat numbering, V domains shown)
VH: B1 VH with L65S, V109A
VL: B1 VL
B40: H183/L072 VH V100cI (antibody, name in Kabat numbering, V domains shown)
VH: B1 VH with L65S, V109I
VL: B1 VL
B41: H183/L072 VH V100cL (antibody, name in Kabat numbering, V domains shown)
VH: B1 VH with L65S, V109L
VL: B1 VL
B42: H183/L072 VH V100cM (antibody, name in Kabat numbering, V domains shown)
VH: B1 VH with L65S, V109M
VL: B1 VL
B43: H183/L072 VH V100iA (antibody, name in Kabat numbering, V domains shown)
VH: B1 VH with L65S, V115A
VL: B1 VL
B44: H183/L072 VH V100iI (antibody, name in Kabat numbering, V domains shown)
VH: B1 VH with L65S, V115I
VL: B1 VL
B45: H183/L072 VH V100iL (antibody, name in Kabat numbering, V domains shown)
VH: B1 VH with L65S, V115L
VL: B1 VL
B46: H183/L072 VH V100iM (antibody, name in Kabat numbering, V domains shown)
VH: B1 VH with L65S, V115M
VL: B1 VL
B47: H183/L072 VH W33L (antibody, name in Kabat numbering, V domains shown)
VH: B1 VH with W33L, L65S
VL: B1 VL

Each binder was assayed against T1, Human CD137 ECD (human) (assay: single mutant vs template dBBDu183H).
T1 construct: also called 4-1BB
T1 sequence (chain, as listed by the source limits assumed): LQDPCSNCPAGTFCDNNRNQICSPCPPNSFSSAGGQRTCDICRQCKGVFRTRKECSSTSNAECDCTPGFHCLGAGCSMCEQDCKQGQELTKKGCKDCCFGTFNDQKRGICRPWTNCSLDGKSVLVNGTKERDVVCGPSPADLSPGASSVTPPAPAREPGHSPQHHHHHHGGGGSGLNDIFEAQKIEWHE

Row | Binder | fold change of affinity [fold]
1 | B1 | 0.9
2 | B2 | 0.8
3 | B3 | 0.7
4 | B4 | 1.4
5 | B5 | 0
6 | B6 | 0.3
7 | B7 | 0.8
8 | B8 | 0
9 | B9 | 0
10 | B10 | 0
11 | B11 | 0
12 | B12 | 0.4
13 | B13 | 0.3
14 | B14 | 0.3
15 | B15 | 1.1
16 | B16 | 0.8
17 | B17 | 1.1
18 | B18 | 0.7
19 | B19 | 0.5
20 | B20 | 0.5
21 | B21 | 1.5
22 | B22 | 1.2
23 | B23 | 0.8
24 | B24 | 1.1

Row | Binder | fold change of affinity [fold]
25 | B25 | 0
26 | B26 | 0
27 | B27 | 0.1
28 | B28 | 0.5
29 | B29 | 0.9
30 | B30 | 1.1
31 | B31 | 0.9
32 | B32 | 0.8
33 | B33 | 1
34 | B34 | 0
35 | B35 | 0.3
36 | B36 | 0.2
37 | B37 | 0
38 | B38 | 0
39 | B39 | 0.4
40 | B40 | 2.5
41 | B41 | 3.3
42 | B42 | 1.3
43 | B43 | 0
44 | B44 | 1.1
45 | B45 | 0.1
46 | B46 | 0
47 | B47 | 0
